Data: the RNAGym collection of RNA variant scans (doi:10.1073/pnas.2313332121)

B1: TPR t1 (parent)
chain: GACCAAUCUGCCCUCAGAGCUCGAGAACAUCUUCGGAUGCAGAGGAGGCAGGCUUCGGUGGCGCGAUAGCGCCAACGUCCUCAACCUCCAAUGCAUCCCACCACAUGAUGAUGCCUGAAGAGCCUUGGUUUUUUG

Variants of: B1
Assay: polymerase ribozyme fitness, log enrichment relative to wild type (log ratio); higher = more active; in vitro selection for triplet polymerase activity
Summary of the method: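 Mutant libraries were PCR-built and transcribed for each subunit of a heterodimeric triplet polymerase ribozyme and selected for one round in triplicate at −7 °C, frozen, before gel excision of extended constructs and streptavidin-bead capture. Input and output libraries were Illumina-sequenced, keeping genotypes with ≥10 input reads and ≥1 read per output. Fitness is a logarithmic ratio of genotype to wild-type enrichment, in base 2, using inverse-variance-weighted replicate averages.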

Variant	polymerase ribozyme fitness (log ratio)
GAACAAUCUGCCCUCAGAGCUCGAGUACAUCUUCGGAUGCAGAGGAGGCAGGCUUCGGUGGCGCGAUAGCGCCAACGUCCUCAACCUCCAAUGCAUCCCACCACAUGAUGAUGCCUGAAGAGCCUUGGUUUUUUG [C3A A26U]	-4.19
GUCCAAUCUGCCCUCAGAGCUCGAGAACAUCUUCGGAUGCAGAGGAGGCAGGCUUCGGUGGCGCGAUAGCGCCAACGUCCUCAACCUCCAAUGCAUCCCACCACAUGAUGAUGCCAGAAGAGCCUUGGUUUUUUG [A2U U116A]	-5.18
GUCCAAUCUGCCCUCAGAGCUCGAGAACAUCUUCGGAUGCAGAGGAGGCAGGCUUCGGUGGCGCGAUAGCGCCAACGUCCUCAACCUCCAAUGCAUCCCACCACAUGAUGAUGCCCGAAGAGCCUUGGUUUUUUG [A2U U116C]	-1.84
GUCCAAUCUGCCCUCAGAGCUCGAGAACAUCUUCGGAUGCAGAGGAGGCAGGCUUCGGUGGCGCGAUAGCGCCAACGUCCUCAACCUCCAAUGCAUCCCACCACAGGAUGAUGCCUGAAGAGCCUUGGUUUUUUG [A2U U106G]	-4.83
GAACAAUCUGCUCUCAGAGCUCGAGAACAUCUUCGGAUGCAGAGGAGGCAGGCUUCGGUGGCGCGAUAGCGCCAACGUCCUCAACCUCCAAUGCAUCCCACAACAUGAUGAUGCCUGAAGAGCCUUGGUUUUUUG [C3A C12U C102A]	-1.7
GAACAAUGUGCCCUCAGAGCUCGAGAACAUCUUCGGAUGCAGAGGAGGCAGGCUUCGGUGGCGCGAUAGCGCCUACGUCCUCAACCUCCAAUGCCUCCCACCACAUGAUGAUGCCUAAAGAGCCUUGUUUUUUUG [C3A C8G A74U A95C G117A G128U]	-0.293
GAACAAUCUGACCUCUGAGCUCGAGAACAUCUUCGGAUGCAGAGGAGGAAGGCUUCGGUGGCGCGAUAGCGCCAACGUCCUCAACCUCCAAUGCAUCCCACCACAUGAUGAUGCCUAAAGAGCCUUGGUUUUUUG [C3A C11A A16U C49A G117A]	-4.16
GAAUAAUCUGCCCUCAGAGCUCGAGAACAUCUUCGGAUGCAGAGGUGGCAGGCUUCGGUGGCGCGAUAGCGCCAACGUCCUCAACCUCCAAUGCAUCCCACCACAUGAUGAUGUCUGAAGAGCCUUGGUUUUUUG [C3A C4U A46U C114U]	-4.9
GAACAAUCUGCCCUCAGAGCUCGAGAACAUCUUCGGAUGCAGUGGAGGCAGGCUUCGGUCGCGCGAUAGCGCCAACGUCCUGAACCUCCAAUGCAUCCCACCACAUGAUGAUGCCUGAAGAGCCUUGGUUUUUUG [C3A A43U G60C C82G]	-5.1
GAACAAUCUGCCCUAAGAGCUCGAGAACAUCUUCGGAUGCAGAGGAGGCAGGUUUCGGUGGCCCGAUAGCGCCAACGUCCUCAACCUCCAAUGCAUCCCACCACAUGAUGAUGCCUGAAGAGCCUUGGUUUUUUG [C3A C15A C53U G63C]	-3.45
GAACAAUCUGUCCUCAGAGCUCGAGAACAUCUUCGGAUGCAGAGGAAGCAGGCUUCGGUGGCUCGAUAGCGCCAACGUCCUCAACCUCCAAUGCAUCCCACCACAUGAUGAUGCCUGAAGAGCCUUCGUUUUUUG [C3A C11U G47A G63U G127C]	-3.33
GAACAAUGUGCCCUCAGAGCUCGAGAACAUCUUCGGAUGCAGAGGAGGCAGGCUUCGGUGGCCCGAUAGCGCCAACGUCCUCAACCUCCAAUGCCUCCCACCACAUGAUGAUGCCUAAAGAGCCUUGUUUUUUUG [C3A C8G G63C A95C G117A G128U]	-0.17
GAACACUCUGCCCUCAGAGCUCGAGAACAUCUUCGGAUGCAGAGGAGGCAGGCUUCGGAGGAGCGAUAGCGCCAACGGCCUCAACCUCCAAUGCAUUCCACCACAUGAUGAUGCCUCAAGAGCCUUGGUUUUUUC [C3A A6C U59A C62A U78G C97U G117C G135C]	-6.34
GAACAAUUUGCCCUCAGAGCUCGAGAACAUCUUCGGAUGCAGAGGAGGCAGGCUUCGGAGGCGCGAUAGCGCCAACGUCCUCAACCGCCAAUGCAUCCCACCACAUGAUGAUGCCUGAAGAGCCUUGGUUUUUUG [C3A C8U U59A U87G]	-1.65
GAACCAUCUGCCGUCAGAGCUCGAGAACAUCUUCGAAUGCAGAGGAGGCAGGCUUCGGUGGCGCGAUAGCGCCAACGUUCUCAUCCUCCAAUGCAUCCCACCACAUGAUGAUGCCUGAAGAGCCUUGGUUUUUUG [C3A A5C C13G G36A C79U A84U]	-1.28
GUCCAAUCUGCCCUCAGAGCUCGAGAACAUCUUCGGAUGCAGAGGAGGCAGGCUUCGGUGGCGCGAUAGCGCCAACGUCCUCAACCUCCAAUGCAUCCCACCACAUGAUGAGGCCUGAAGAGCCUUGGUUUUUUG [A2U U112G]	-1.44
GAACAAUCUGCCCUCCGAGCUCGAGAACAUCUUCGGAUGCAGAGGAGGCAGGCUUCGGUGGCGCGAUAGCGCCAACGGUCUCAACCUCCAAUGCAUCCCACCACAUGAUGAUGCCUGAAGAGCCUUGGUUUUUUG [C3A A16C U78G C79U]	-4.42
GUCCAAUCUGCCCUCAGAGCUCGAGAACAUCUUCGGAUGCAGAGGAGGCAGGCUUCGGUGGCGCGAUAGCGCCAACGUCCUCAACCUCCAAUGCAUCCCACCACAUGAUGAUGCCUGAAGAGCCUUGGAUUUUUG [A2U U129A]	0.107
GAACUAUCUGGCCUCAGAGCUCGAGAACAUCUUCGUAUGCAGAGUAGGCAGGCUUCGGUGGCGCGAUAGCGCCAACGUCCUCAACCUCCAAUGCAUCCCACCACAUGAUGAUGCCUGAAGAGCCUUGGUUUUUUG [C3A A5U C11G G36U G45U]	-1.02
GAACAAUCUGCCCUCAGAGCUCGAGAACAUCUUCGGAUGCAGGGGAGGCAGGCUUCGGUGGCGCGAUAGCGCCAACGUCCUCAACCUCCAAUGCAUCCCACCACAUGAUGAUGCCUGAAGAGCCUUGGUUUUUUG [C3A A43G]	-3.31
GAACAAUCUGCUCUCAGAGCUCGAGAACGUCUUCGGAUGCAGAGGAGGCAGGCUUCGGUGGCGCGAUAGCGCCAACGUCCUCAACCCCCAAUGCAUCCCACCACAUGAUAAUGCCUGUAGAGCCUUGGUUGUUUG [C3A C12U A29G U87C G110A A118U U131G]	-0.49
